Measured values published in patent publication US20100041597A1, “PEPTIDES TARGETED TO PROTEIN KINASE C ISOFORMS AND USES THEREOF” (priority 2005, published 2010).

Target: PKC-βI (Homo sapiens, UniProt P05771)
Assay: ELISA-based competitive binding assay with purified PKC isoform
Parameters: key to Affinity for PKC isoform βI: —: no detectable affinity; Low to very low affinity at 10X or 20X or both PRE concentrations in at least one cell line in the cell extract assay; Low affinity in purified isoform assay.; Moderate affinity at 10X or 20X or both PRE concentrations in at least one cell line in the cell extract assay.; High affinity at 10X or 20X or both PRE concentrations in at least one cell line in the cell extract assay; High affinity in purified isoform assay
Conditions: PRE 50 μM; purified PKC-βI
Protocol: (§1) Peptides PRE 1, 2, 3, 4, 5, 6, 7, 8, 9, 10, 11, 12 and 13 (see Table 3) were tested for their ability to interfere with binding of PKC isoform-specific antibodies to their target PKC isoforms using a competitive binding assay and purified PKC isoforms.
(§2) Procedure: Competitive binding was assessed using a 96 well plate ELISA-based assay as described below.
(§3) Greiner 96 well ELISA plates were coated with the appropriate PKC isoform diluted in PBSN (PBS with Calcium/Magnesium+0.05% Sodium azide w/w). 50 μL/well at 250 ng/mL was used. Control wells contained PBSN only. Plates were incubated overnight at 4° C.
(§4) The plates were washed 3 times with 200 μL of dH2O per well, then 100 μL of blocking solution was added per well and the plate incubated for 1 h at 37° C. The washing steps with dH2O were repeated and 50 μL of the appropriate PRE solution (PRE stock solution [20 mM in DMSO] diluted in PBSN) was added and the plate incubated for 1 h at room temperature.
(§5) After incubation, 5 μL of 1.1:400 anti-PKC (isoform specific antibody) was added per well (to provide a final concentration of 1:4000). For PKC-epsilon, 1.1:800 dilution was used and for PKC-zeta a 1.1:100 dilution was used due to high and low binding affinity, respectively. The plates were then incubated 1 h at room temperature, followed by washing with dH2O as described above.
(§6) 50 μL of 1:1000 dilution of Alkaline Phosphatase (AP) conjugated antibody (anti-rabbit for all except zeta, which was anti-goat) was then added and the plate incubated for 1 h at room temperature. Washing with dH2O was then repeated. Finally, 100 μL of pNPP solution in pNPP buffer (2 mM MgCl2, 100 mM Sodium bicarbonate in water, pH 9.8) was added to all wells and incubated for 8 minutes for α, βI, βII ε, and ζ, or for 15-20 mins for […] (until sufficient coloration is observed). The reaction was stopped by addition of Stop solution (2N NaOH) and the absorbance at 405 nm was read on a Galaxy Plate reader.
(§7) Controls were PKC without PRE; blank controls, and controls containing the final concentrations of DMSO used for solubilizing the PREs. The non-specific binding capacity related to DMSO was also measured.
(§8) The antibodies used were as follows: anti-PKC α (Cat. No. SC-208); anti-PKC βI (Cat. No. SC-209); anti-PKC βII (Cat. No. SC-210); anti-PKC δ (Cat. No. SC-213); anti-PKC ε (Cat. No. SC-214); anti-PKC ζ (Cat. No. SC-216-G) (all from Santa Cruz Biotechnology, Inc.). The AP-conjugated antibodies were obtained from Jackson Immuno Research Laboratories (West Grove, Pa.).
(§9) Calculations: The OD values measured at 405 nm represent the free PKC coated per well.
(§10) OD405 PKC alone−Blank OD405 of each sample=OD405 coated isoform
(§11) (OD405 of sample X/OD405 coated isoform)×100=% n that represents the percentage of X binding compared to control.
(§12) 100-% n measures the relative binding capacity of X towards the tested isoform.
(§13) The apparent binding capacity of the DMSO samples was then subtracted from X binding capacity.
(§14) All measurements were made in triplicate and the values in the table represent the averaged calculated binding capacity values after subtraction of the DMSO apparent binding capacity (averaged from 12 values, respectively 10.80, 11.20 and 16.40 corresponding to the concentrations of DMSO used to dilute the […] at 200, 100 and 50 μM respectively). The results allow for quantitative comparison of the binding capacity of each PRE towards an individual isoform within each table, but not among isoforms due to differences in sensitivity of the specific antibodies toward the secondary antibody. This applies particularly to PKC-delta. As noted above, the colour development duration was increased 2-3 times and, as a result, the OD405 measurements may be overestimated for this isoform.

Chain of PKC-βI (P05771 whole entry, canonical isoform): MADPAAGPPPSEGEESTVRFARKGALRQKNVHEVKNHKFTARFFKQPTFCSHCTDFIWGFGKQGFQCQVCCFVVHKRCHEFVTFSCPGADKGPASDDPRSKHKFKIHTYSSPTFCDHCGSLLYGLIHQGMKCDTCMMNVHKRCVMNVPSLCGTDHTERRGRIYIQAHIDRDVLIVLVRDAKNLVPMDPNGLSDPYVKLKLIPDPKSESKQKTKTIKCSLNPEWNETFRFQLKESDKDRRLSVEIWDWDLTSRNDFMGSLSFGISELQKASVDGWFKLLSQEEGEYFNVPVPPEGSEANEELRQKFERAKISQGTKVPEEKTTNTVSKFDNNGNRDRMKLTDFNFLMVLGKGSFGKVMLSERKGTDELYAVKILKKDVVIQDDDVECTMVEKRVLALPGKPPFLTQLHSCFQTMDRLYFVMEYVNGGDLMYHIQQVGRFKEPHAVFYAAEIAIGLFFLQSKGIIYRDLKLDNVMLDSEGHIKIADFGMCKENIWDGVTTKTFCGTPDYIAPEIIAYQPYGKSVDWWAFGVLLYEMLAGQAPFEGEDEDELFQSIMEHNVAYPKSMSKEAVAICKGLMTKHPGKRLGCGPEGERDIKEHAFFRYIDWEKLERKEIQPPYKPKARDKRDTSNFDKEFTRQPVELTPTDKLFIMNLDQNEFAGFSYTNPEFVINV

Row | Substance | calculated binding capacity (100-% n) after subtraction of the DMSO apparent binding capacity
1 | Ac-isigilgnadk-NH2 [PRE 9] | 11.53
2 | Ac-ISIGILNQADK-NH2 [PRE 10] | 3.77
3 | Ac-RDAQNLIGISI-NH2 [PRE 11] | 9.86

Same assay, conditions: PRE 50 μM; purified PKC-βI; read-out: calculated binding capacity (100-% n) after subtraction of the DMSO apparent binding capacity

Row | Substance | inhibition at 50 µM
4 | Ac-KDAQNLIGISI-NH2 [PRE 4, Ac-KDAQNLIGISI-NH2] | 6.02%
5 | Ac-AKGIQEVKGGDAQNLIGISI-NH2 [PRE 3] | 26%
6 | Ac-AKGIQEVKGGKDAQNLIGISI-NH2 [PRE 5] | 0%

Same assay, conditions: PRE 100 μM; purified PKC-βI

Row | Substance | calculated binding capacity (100-% n) after subtraction of the DMSO apparent binding capacity
7 | Ac-isigilgnadk-NH2 [PRE 9] | 8.82
8 | Ac-ISIGILNQADK-NH2 [PRE 10] | 4.35
9 | Ac-RDAQNLIGISI-NH2 [PRE 11] | 14.23

Same assay, conditions: PRE 100 μM; purified PKC-βI; read-out: calculated binding capacity (100-% n) after subtraction of the DMSO apparent binding capacity

Row | Substance | inhibition at 100 µM
10 | Ac-KDAQNLIGISI-NH2 [PRE 4, Ac-KDAQNLIGISI-NH2] | 15.7%
11 | Ac-AKGIQEVKGGDAQNLIGISI-NH2 [PRE 3] | 22.5%
12 | Ac-AKGIQEVKGGKDAQNLIGISI-NH2 [PRE 5] | 0%

Same assay, conditions: PRE 200 μM; purified PKC-βI

Row | Substance | calculated binding capacity (100-% n) after subtraction of the DMSO apparent binding capacity
13 | Ac-isigilgnadk-NH2 [PRE 9] | 5.72
14 | Ac-RDAQNLIGISI-NH2 [PRE 11] | 12.5

Same assay, conditions: PRE 200 μM; purified PKC-βI; read-out: calculated binding capacity (100-% n) after subtraction of the DMSO apparent binding capacity

Row | Substance | inhibition at 200 µM
15 | Ac-KDAQNLIGISI-NH2 [PRE 4, Ac-KDAQNLIGISI-NH2] | 7.46%
16 | Ac-AKGIQEVKGGDAQNLIGISI-NH2 [PRE 3] | 23%
17 | Ac-AKGIQEVKGGKDAQNLIGISI-NH2 [PRE 5] | 0%

Same assay, conditions: Purified isoform; Table 20

Row | Substance | Affinity for PKC isoform βI
18 | Ac-KDAQNLIGISI-NH2 [PRE 4, Ac-KDAQNLIGISI-NH2] | L
19 | Ac-isigilgnadk-NH2 [PRE 9] | L
20 | Ac-ISIGILQNADK-NH2 [PRE 7] | —
21 | ILEDKGGDAQNLIGISI [PRE 8] | —
22 | Ac-KDANQLIGISI-NH2 [PRE 6] | L
23 | RRKKGGKDFVVKR [PRE 1] | H
24 | Ac-AKGIQEVKGGDAQNLIGISI-NH2 [PRE 3] | H
25 | Ac-AKGIQEVKGGKDAQNLIGISI-NH2 [PRE 5] | —

The next lines start with the values.

Row | Affinity for PKC isoform βI | Substance
26 | — | Ac-ISIGILNQADK-NH2 [PRE 10]
27 | — | Ac-RDAQNLIGISI-NH2 [PRE 11]
28 | — | Ac-RDAQNLI-NH2 [PRE 13]
29 | — | Ac-KDAQNLI-NH2 [PRE 12]

Same assay, conditions: purified isoform, Tables 14-19

Row | Substance | targeting of PKC-βI
30 | RRKKGGKDFVVKR [PRE 1] | targeted most strongly
31 | Ac-AKGIQEVKGGDAQNLIGISI-NH2 [PRE 3] | targeted most strongly

Target: PKC-α (Homo sapiens, UniProt P17252)
Assay: as above
Parameters: key to Affinity for PKC isoform α: —: no detectable affinity; Low to very low affinity at 10X or 20X or both PRE concentrations in at least one cell line in the cell extract assay; Low affinity in purified isoform assay.; Moderate affinity at 10X or 20X or both PRE concentrations in at least one cell line in the cell extract assay.; High affinity at 10X or 20X or both PRE concentrations in at least one cell line in the cell extract assay; High affinity in purified isoform assay
Conditions: PRE 50 μM; purified PKC-α
Protocol: as §1, §2, §3, §4, §5, §6, §7, §8, §9, §10, §11, §12, §13, §14

Row | Substance | calculated binding capacity (100-% n) after subtraction of the DMSO apparent binding capacity
32 | RRKKGGKDFVVKR [PRE 1] | 0.69

Same assay, conditions: PRE 50 μM; purified PKC-α; read-out: calculated binding capacity (100-% n) after subtraction of the DMSO apparent binding capacity

Row | Substance | inhibition at 50 µM
33 | Ac-KDAQNLIGISI-NH2 [PRE 4, Ac-KDAQNLIGISI-NH2] | 6.46%
34 | Ac-AKGIQEVKGGDAQNLIGISI-NH2 [PRE 3] | 17.5%
35 | Ac-AKGIQEVKGGKDAQNLIGISI-NH2 [PRE 5] | 0%

Same assay, conditions: PRE 100 μM; purified PKC-α

Row | Substance | calculated binding capacity (100-% n) after subtraction of the DMSO apparent binding capacity
36 | Ac-isigilgnadk-NH2 [PRE 9] | 5.35

Same assay, conditions: PRE 100 μM; purified PKC-α; read-out: calculated binding capacity (100-% n) after subtraction of the DMSO apparent binding capacity

Row | Substance | inhibition at 100 µM
37 | Ac-KDAQNLIGISI-NH2 [PRE 4, Ac-KDAQNLIGISI-NH2] | 21.9%
38 | Ac-AKGIQEVKGGDAQNLIGISI-NH2 [PRE 3] | 26.5%
39 | Ac-AKGIQEVKGGKDAQNLIGISI-NH2 [PRE 5] | 0%

Same assay, conditions: PRE 200 μM; purified PKC-α

Row | Substance | calculated binding capacity (100-% n) after subtraction of the DMSO apparent binding capacity
40 | RRKKGGKDFVVKR [PRE 1] | 2.10

Same assay, conditions: PRE 200 μM; purified PKC-α; read-out: calculated binding capacity (100-% n) after subtraction of the DMSO apparent binding capacity

Row | Substance | inhibition at 200 µM
41 | Ac-KDAQNLIGISI-NH2 [PRE 4, Ac-KDAQNLIGISI-NH2] | 22.8%
42 | Ac-AKGIQEVKGGDAQNLIGISI-NH2 [PRE 3] | 22.6%
43 | Ac-AKGIQEVKGGKDAQNLIGISI-NH2 [PRE 5] | 0%

Same assay, conditions: Purified isoform; Table 20

Row | Substance | Affinity for PKC isoform α
44 | Ac-KDAQNLIGISI-NH2 [PRE 4, Ac-KDAQNLIGISI-NH2] | H
45 | Ac-isigilgnadk-NH2 [PRE 9] | —
46 | Ac-ISIGILQNADK-NH2 [PRE 7] | L
47 | ILEDKGGDAQNLIGISI [PRE 8] | —
48 | Ac-KDANQLIGISI-NH2 [PRE 6] | —
49 | RRKKGGKDFVVKR [PRE 1] | —
50 | Ac-AKGIQEVKGGDAQNLIGISI-NH2 [PRE 3] | H
51 | Ac-AKGIQEVKGGKDAQNLIGISI-NH2 [PRE 5] | —

Now from value to substance:

Row | Affinity for PKC isoform α | Substance
52 | — | Ac-ISIGILNQADK-NH2 [PRE 10]
53 | L | Ac-RDAQNLIGISI-NH2 [PRE 11]
54 | — | Ac-RDAQNLI-NH2 [PRE 13]
55 | — | Ac-KDAQNLI-NH2 [PRE 12]

Same assay, conditions: purified isoform, Tables 14-19

Row | Substance | targeting of PKC-α
56 | Ac-KDAQNLIGISI-NH2 [PRE 4, Ac-KDAQNLIGISI-NH2] | targeted most strongly
57 | Ac-AKGIQEVKGGDAQNLIGISI-NH2 [PRE 3] | targeted most strongly

Same assay, conditions: purified isoforms α, βI, βII, δ, ε, ζ compared

Row | Substance | isoform specificity
58 | Ac-KDAQNLIGISI-NH2 [PRE 4, Ac-KDAQNLIGISI-NH2] | specificity for PKC-A
59 | Ac-AKGIQEVKGGDAQNLIGISI-NH2 [PRE 3] | “universal” PKC targeting peptide, with the exception of the PKC-βII isoform
